According to patent publication US20250270343A1 (Alector, published 2025):

T1: full-length untagged human GPNMB expressed on cells (human, UniProt Q14956 23-572)
T1 sequence: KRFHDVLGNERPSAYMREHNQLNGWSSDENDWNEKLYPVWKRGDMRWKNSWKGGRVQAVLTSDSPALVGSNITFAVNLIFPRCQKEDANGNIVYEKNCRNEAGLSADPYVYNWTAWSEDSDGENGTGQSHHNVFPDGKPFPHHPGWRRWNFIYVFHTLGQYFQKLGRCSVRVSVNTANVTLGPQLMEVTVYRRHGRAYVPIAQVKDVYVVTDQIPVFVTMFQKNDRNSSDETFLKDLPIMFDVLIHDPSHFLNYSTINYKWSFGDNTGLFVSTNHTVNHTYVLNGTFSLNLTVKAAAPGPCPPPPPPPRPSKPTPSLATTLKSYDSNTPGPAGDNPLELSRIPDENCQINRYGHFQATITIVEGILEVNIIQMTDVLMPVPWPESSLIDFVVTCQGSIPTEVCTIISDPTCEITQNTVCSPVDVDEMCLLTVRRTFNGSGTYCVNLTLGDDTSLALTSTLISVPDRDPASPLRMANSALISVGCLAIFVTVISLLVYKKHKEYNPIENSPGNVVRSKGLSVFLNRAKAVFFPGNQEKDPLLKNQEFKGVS

T2: soluble cynomolgus GPNMB (recombinant extracellular domain) (cynomolgus, UniProt Q14956 23-499 (human entry), limits assumed)
T2 chain: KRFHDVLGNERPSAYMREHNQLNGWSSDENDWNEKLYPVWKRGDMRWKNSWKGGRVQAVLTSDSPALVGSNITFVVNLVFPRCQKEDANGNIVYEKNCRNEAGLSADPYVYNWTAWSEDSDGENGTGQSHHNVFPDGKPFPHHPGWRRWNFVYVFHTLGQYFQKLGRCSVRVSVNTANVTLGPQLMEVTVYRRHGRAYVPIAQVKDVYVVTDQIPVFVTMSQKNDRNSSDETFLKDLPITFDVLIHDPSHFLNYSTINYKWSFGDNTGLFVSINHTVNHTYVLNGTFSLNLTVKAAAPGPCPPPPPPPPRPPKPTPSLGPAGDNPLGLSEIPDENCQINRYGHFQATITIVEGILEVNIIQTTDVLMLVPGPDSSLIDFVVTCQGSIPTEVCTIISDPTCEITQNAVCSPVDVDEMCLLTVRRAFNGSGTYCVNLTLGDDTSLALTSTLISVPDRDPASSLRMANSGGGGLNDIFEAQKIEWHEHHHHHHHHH

T3: soluble mouse GPNMB (recombinant extracellular domain) (mouse, UniProt Q99P91 23-502)
T3 construct: also called moGPNMB; not shown: C-terminal polyhistidine or Avi-His tag
T3 sequence: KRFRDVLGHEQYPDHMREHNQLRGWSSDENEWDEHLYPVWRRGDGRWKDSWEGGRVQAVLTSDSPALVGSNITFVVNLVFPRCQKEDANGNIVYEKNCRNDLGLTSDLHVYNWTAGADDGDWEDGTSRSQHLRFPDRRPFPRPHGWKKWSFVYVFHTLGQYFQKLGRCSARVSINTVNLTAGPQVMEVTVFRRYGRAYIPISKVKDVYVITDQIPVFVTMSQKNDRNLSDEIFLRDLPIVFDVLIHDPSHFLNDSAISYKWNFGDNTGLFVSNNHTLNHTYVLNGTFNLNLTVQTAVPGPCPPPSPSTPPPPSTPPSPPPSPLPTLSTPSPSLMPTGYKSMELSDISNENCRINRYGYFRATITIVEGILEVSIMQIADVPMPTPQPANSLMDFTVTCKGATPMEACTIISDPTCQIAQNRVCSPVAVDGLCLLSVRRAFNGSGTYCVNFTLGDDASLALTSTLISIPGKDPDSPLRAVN

T4: soluble human GPNMB (recombinant extracellular domain) (human, UniProt Q14956 23-498)
T4 construct: also called huGPNMB; recombinant human GPNMB extracellular domain; not shown: C-terminal polyhistidine or Avi-His tag
T4 sequence: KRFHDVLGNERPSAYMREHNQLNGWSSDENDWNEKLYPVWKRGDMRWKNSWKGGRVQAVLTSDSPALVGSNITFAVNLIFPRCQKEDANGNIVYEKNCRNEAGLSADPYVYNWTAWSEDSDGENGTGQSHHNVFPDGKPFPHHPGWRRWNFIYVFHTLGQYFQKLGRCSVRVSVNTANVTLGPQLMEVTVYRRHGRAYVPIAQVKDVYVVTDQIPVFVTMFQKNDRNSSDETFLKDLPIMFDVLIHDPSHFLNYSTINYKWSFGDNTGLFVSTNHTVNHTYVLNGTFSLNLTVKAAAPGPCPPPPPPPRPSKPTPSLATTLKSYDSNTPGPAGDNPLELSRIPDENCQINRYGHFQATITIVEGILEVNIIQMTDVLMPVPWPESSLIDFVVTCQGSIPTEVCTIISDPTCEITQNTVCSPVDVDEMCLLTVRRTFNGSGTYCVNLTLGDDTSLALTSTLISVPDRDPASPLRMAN


Assays:
[1] = biological target: T1, full-length untagged human GPNMB …; test: cell-based or functional assay
[2] = biological target: T1, full-length untagged human GPNMB …; test: cell-based or functional assay; remark: listed apart in the source
[3] = biological target: T2, soluble cynomolgus GPNMB (recombinant …); test: SPR Biacore, IgG captured
Procedure: (§1) Binding kinetics of the humanized and affinity matured anti-GPNMB antibodies described above were evaluated using the Biacore T200 (Cytiva). Briefly, IgGs were diluted to 10 μg/mL and captured using a Protein A/G (ThermioFisher, #21186) surface on a CM5 chip that was prepared by amine coupling according to the instrument manufacturer's recommendations. The captured antibodies were tested for their ability to bind human, cynomolgus monkey, and mouse GPNMB recombinant proteins as follows.
(§2) Human, cynomolgus, and mouse GPNMB analytes were diluted in running buffer (HBS-EP+, Teknova, #8022, with 0.5 mg/ml BSA, MP Biomedicals LLC, #820451), to a concentration of 300 nM, then diluted 3-fold serially to 100 nM, 33 nM, and 11 nM. Each sample was injected for 2 minutes to allow association, followed by dissociation in buffer alone for 10 minutes. Each sample injection was followed by the regeneration of the chip with three 30-second injections of 10 mM glycine, pH 1.7. Fresh antibody was captured at the beginning of each cycle.
(§3) Data were analyzed using Biacore evaluation software to generate kinetic constants. The equilibrium dissociation constants (KD) were calculated from the fitted association and dissociation rate constants (k-on and k-off) for each of the anti-GPNMB antibodies.

[4] = biological target: T3, soluble mouse GPNMB (recombinant …); test: SPR Biacore, IgG captured
Procedure: as §1, §2, §3

[5] = biological target: T4, soluble human GPNMB (recombinant …); test: SPR Biacore, IgG captured
Procedure: as §1, §2, §3

Binder | Inflammasome: Fold Decrease IL-1β (max response at 0.3 µg/ml) [1] [fold] | EC50 GCase [2] [nM] | EC50 Lyso Tracker [2] [nM] | Fold Decrease Lyso Tracker (max response at 1 µg/ml) [2] [fold] | Fold Increase GCase (max response at 1 µg/ml) [2] [fold] | Kd [3] [nM] | koff [3] [s⁻¹] | kon [3] [M⁻¹ s⁻¹] | Kd [4] [nM] | koff [4] [s⁻¹] | kon [4] [M⁻¹ s⁻¹] | Kd [5] [nM] | koff [5] [s⁻¹] | kon [5] [M⁻¹ s⁻¹]
anti-GPNMB antibody GPN-83 (antibody, V domains shown) VH: QVQLQESGPGLVKPSETLSLTCTVSGISITTGNYRWSWIRQPPGKGLEWIGYIDYSGTITYNPSLKSRVTITRDTSKNQFSLELSSVTAADTAVYYCARDLTHWYFDVWGQGTLVTVSS VL: DIVMTQSPDSLAVSLGERATINCKSSRSVDYYGIGFVNWYQQKPGQPPKLLIYATSIQGSGVPDRFSGSGSGTDFTLTISSLQAEDVAVYYCQQQKEVPPTFGGGTKVEIK | 0.472 | 0.834 | 1.17 | 0.755 | 1.32 | 8.1 | 0.0014 | 170000 | 1.5 | 0.00024 | 160000 | 7.5 | 0.0016 | 210000
anti-GPNMB antibody GPN-84 (antibody, V domains shown) VH: QVQLQESGPGLVKPSETLSLTCTVSGISITTGNYRWSWIRQPPGKGLEWIGYIDYSGTITYNPSLKSRVTITRDTSKNQFSLELSSVTAADTAVYYCARDLTHWYYDVWGQGTLVTVSS VL: DIVMTQSPDSLAVSLGERATINCKSSRSVDYYGIGFVNWYQQKPGQPPKLLIYATSIQGSGVPDRFSGSGSGTDFTLTISSLQAEDVAVYYCQQQKEVPPTFGGGTKVEIK | – | – | – | – | – | 10.3 | 0.0019 | 180000 | 2.1 | 0.00034 | 160000 | 9.6 | 0.0021 | 220000
anti-GPNMB antibody GPN-85 (antibody, V domains shown) VH: QVQLQESGPGLVKPSETLSLTCTVSGISITTGNYRWSWIRQPPGKGLEWIGYIDYSGTITYNPSLKQRVTITRDTSKNQFSLELSSVTAADTAVYYCARDLTHWYFDVWGQGTLVTVSS VL: DIVMTQSPDSLAVSLGERATINCKSSRSVDYFGIGFLNWYQQKPGQPPKLLIYATSHQGSGVPDRFSGSGSGTDFTLTISSLQAEDVAVYYCQQQKEVPPTFGGGTKVEIK | 0.601 | 2.2 | 1.39 | 0.755 | 1.31 | 1.4 | 0.00021 | 150000 | 0.5 | 7.4e-05 | 140000 | 1 | 0.00018 | 170000
anti-GPNMB antibody GPN-87 (antibody, V domains shown) VH: QVQLQESGPGLVKPSETLSLTCTVSGISITTGNYRWSWIRQPPGKGLEWIGYIDYSGTITYNPSLKSRVTITRDTSKNQFSLELSSVTAADTAVYYCARDLTHWYYDVWGQGTLVTVSS VL: DIVMTQSPDSLAVSLGERATINCKSSRSVDYYGIGFLNWYQQKPGQPPKLLIYATSKQGSGVPDRFSGSGSGTDFTLTISSLQAEDVAVYYCQQQKEVPPTFGGGTKVEIK | 0.428 | 0.767 | 1.06 | 0.716 | 1.36 | 6.2 | 0.0012 | 190000 | 1.5 | 0.00028 | 190000 | 5.4 | 0.0013 | 250000
anti-GPNMB antibody GPN-88 (antibody, V domains shown) VH: QVQLQESGPGLVKPSETLSLTCTVSGISITTGNYRWSWIRQPPGKGLEWIGYIDYSGTITYNPSLKSRVTITRDTSKNQFSLELSSVTAADTAVYYCARDLTHWYFDVWGQGTLVTVSS VL: DIVMTQSPDSLAVSLGERATINCKSSRSVDYYGIGFLNWYQQKPGQPPKLLIYATSHQGSGVPDRFSGSGSGTDFTLTISSLQAEDVAVYYCQQQKHVPPTFGGGTKVEIK | – | – | – | – | – | 3.7 | 0.00061 | 160000 | 1.1 | 0.00017 | 150000 | 3.1 | 0.00063 | 200000
anti-GPNMB antibody GPN-89 (antibody, V domains shown) VH: QVQLQESGPGLVKPSETLSLTCTVSGISITTGNYRWSWIRQPPGKGLEWIGYIDYSGTITYNPSLKSRVTITRDTSKNQFSLELSSVTAADTAVYYCARDLTHWYYDVWGQGTLVTVSS VL: DIVMTQSPDSLAVSLGERATINCKSSRSVDYYGIGFLNWYQQKPGQPPKLLIYATSHQGSGVPDRFSGSGSGTDFTLTISSLQAEDVAVYYCQQQKEVPPTFGGGTKVEIK | 0.501 | 0.898 | 1.18 | 0.757 | 1.35 | 3.3 | 0.00055 | 170000 | 0.8 | 0.00012 | 160000 | 2.9 | 0.00057 | 200000
anti-GPNMB antibody GPN-91 (antibody, V domains shown) VH: QVQLQESGPGLVKPSETLSLTCTVSGISITTGNYRWSWIRQPPGKGLEWIGYIDYSGTITYNPSLKSRVTITRDTSKNQFSLELSSVTAADTAVYYCARDLTHWYFDVWGQGTLVTVSS VL: DIVMTQSPDSLAVSLGERATINCKSSRSVDYYGIGFLNWYQQKPGQPPKLLIYATSHQGSGVPDRFSGSGSGTDFTLTISSLQAEDVAVYYCQQQKERPPTFGGGTKVEIK | – | – | – | – | – | 3.6 | 0.00052 | 150000 | 1.1 | 0.00014 | 140000 | 3 | 0.00053 | 180000
